Experiment: soluble on expression in E. coli; label from the status in PepcDB or PDB records

Row | Sequence | soluble on expression in E. coli
1 | MPSQITRSSHSSLPEVAPASGDAAGVSEQTPQQARTVAFFASGELAVAFGRTSTAPAQDSVRLLSALQRELDKQQPSWPTVAQLCHSLAEVAKTEQGWHQLASEDQAPAPALKDLLERCIGRLADMPASHASHDSLSLACEGLRTARLHQSVARLTARPPALARAIPDLLALTHLDPETLGAEPPVVSSYTLFSHFVHTAKQRTAELNDSLQRQPEAVVSLLRSHADTLNDLETLPGALQALTENCQDAPACNELRELAEVVGALLQLLREHGILPRLEAISIEPGEAPAPGHEAAEPRLTRSQALLKAGGNLVRKFDAYGALAPMDDKGLLALMRTPAPHLSPDQMHAFLNKHVLHLTQEQRDIVSNTPLPFAPEGDIEARCGMGFDEKLRLALANGSLVLSEEQLARLGHLPSAATTTSDVVKTLLEKPSSALSEAERDMLGAIVQANGQGQLDAWRAHNEQLPAVLSRSGLPSDVKDELLSLNQSMNAELGTLKNGASFKSRILASPAMLLALAPLPLAVAFVSKDNSYSSSLVAHFTKNAVFMAGLMMNELTNARTNVDHGLNRYFVTVLANAIVAQPTFARNEHLLEQVGFGIATAVASGAATLGVFNRESIVAAFKLAKSKLSRQDTGNASIPEEDHLAVVRHFDVSEHFAQQMKVATELYKQDKSITDIMNSSLTYLGTKSSEFQARFESVDALRAGLQLAEGERKADPDFYTKLGLVALTASIGAALVMLMKSMVGKADYAADGVWCVSEMLKLAMNPEVDMQKAVQVFKEIVGLNLVMTGFLGVNKVWNFLDKGIKGYASGAAVLTAANLTLPGMVGEVAGAAAGKGLSYLTDKGKAAHQAGRAAASWAGNYVGTSRLGSAVGTLQTAIPGRIAGGQVVAGLYDRFRYLTGSHPTPAQQAAGEP | not soluble
2 | MRIEAHQVFNVSIQLCEFFNVDLSDRGYYQIRLRPRKTAEIGSVDISHDTEGDRDTGPKTSSNILLAHVYQGAAVSKTVEVTYQHEKFNLDDWFHISVQFNSTLNLCEPQKLEIEIELLYMDRYHPPQYESFVKITKRIVEIPLDPTRLVAAARSLYFDSTYLSAITMSVFSSLVMVATRQRKANASESASSTKSTKLRRVYNSSAHALLFATRSIQQFIVNNSRLINASVSVVVLDVQTEMKAALQQFDSSDHPTRCVETDVCEWSTKITLIYQQMLILFRKSKELNQQLLLIFDKQRRAVFREAFWINERPIDKCLIRTPVSVLEHYKSIIKVDYLRKLPRCTIFCEETDCPGEFCPIIFEDVFTRNSVGLLDLNNANRQVTIPNSASMPVVKAHEKHKSFREKLRNETRKLIHPRRKSLDCSQSLSRKLDGGVTSRSRTKTLKETTSTDGGGGLLLKNIPNSQENNFSPEFPGPSRDTATESPSCSSEPIASPSPSSEFGRCSAAGELFQDDGIPLISKESVTSEEIANALRTSVSADDVLSCRVTSSTDMKLTEEHPKDRMAEFELLREREAAKKMLRQQTNYEGHLYSEQSGRSTAGPVCTPIKSSLVIGDPVVRSKNKTHLVVFVHGLEGSQEDLVPFRCGLDQAIAAHYHCIQMEGRDFDEEPWAFEYLMSSANRSQTWADITTMAHNLLSEVREYVEEARNDIQRISFLAHSLGGVIVRSAVGLAPEVEMQWMIDRCYTLMTINSPHLGLAYVQKHIHWGVQFVKWWKKSRSMEQLSFRDSVDFASSFVYKTSLNNACGKFKNILLVGTPHDQLVPYMSSLLVPSKISSEDQSQFGEAYREMMTACLSSIQNSEKSENLVRYTTFHQLGSSNTQKITGRAAHVIALEDSVFIEKLFNISAVRYFV | not soluble
3 | MSDDDSSHDLPAANLQQLRLPDSASLRPAFSTHRPRILILYGSLRTVSYSRLLAEEARRLLEFFGAEVKVFDPSGLPLPDAAPVSHPKVQELRELSIWSEGQVWVSPERHGAMTGIMKAQIDWIPLSTGSIRPTQGKTLAVMQVSGGSQSFNAVNQMRILGRWMRMITIPNQSSVAKAFQEFDANGRMKPSSYYDRVVDVMEELVKFTLLTRDCSAYLTDRYSERKESAAELEHRVTLKSVHHHHHH | soluble
4 | MRLHPRTEAAKESIFPRMSGLAQRLGAVNLGQGFPSNPPPPFLLEAVRRALGRQDQYAPPAGLPALREALAEEFAVEPESVVVTSGATEALYVLLQSLVGPGDEVVVLEPFFDVYLPDAFLAGAKARLVRLDLTPEGFRLDLSALEKALTPRTRALLLNTPMNPTGLVFGERELEAIARLARAHDLFLISDEVYDELYYGERPRRLREFAPERTFTVGSAGKRLEATGYRVGWIVGPKEFMPRLAGMRQWTSFSAPTPLQAGVAEALKLARREGFYEALREGYRRRRDLLAGGLRAMGLRVYVPEGTYFLMAELPGWDAFRLVEEARVALIPASAFYLEDPPKDLFRFAFCKTEEELHLALERLGRVVNSPREAEGGAVSG | soluble
5 | MHEYPITKRIIEISQEHANKHNAKEVKQINLVVGDYSGYVASSIELYFGIIAEGTVCENAKLNIKRVKPMLKCNECESLFVRKPFSFECPYCGGQGSPTEIGHEFYIESIEI | soluble
6 | SNAEELIEIREARMDDLDTIAKFNYNLAKETEGKELDMDVLTKGVKALLLDERKGKYHVYTVFDKVVAQIMYTYEWSDWRNGNFLWIQSVYVDKEYRRKGIFNYLFNYIKNICDKDENIVGMRLYVEKENINAKATYESLNMYECDYNMYEYEVIHS | soluble
7 | MSLNKLSNVTLSAEQEKLRERVLSFMRSNLSQYKSDWKHPAMFVIQGDAGTGKSVILNSLFNEIQKLSQFSPSSEDILHGTHNYLVVNHPEMLKLYIRISDSFKYISKSSLERPTSLINNLQKRKVMADVVIVDEAHLLATSKDAFKRFYGENHLKDLMSLCKVLVLVYDDKQALRMGSYWDEGSNNGATLKDFYNEIPPKSRDWYTLKQQFRVAAPQNVLNWIDQISVAGKEGHHHHHH | not soluble
8 | MDQTQNTIAGIGEINGSIKTEINAIATVDDSNEKLNQIINSNQKILELLHQLKLTVSSFTPASQLHLLQRLNSLVMELDNMAKLSDKCNIQVPIEVLNLIDDGKNPDEFTKDVLNKNCIAKNQVTKGKSDAFKGLRKHLLEELEQAFPDEVDRYRDIRASYAAEAKRLAQTQSVLPNGDAKVKSEL | soluble
9 | MSLSLRVRQIDRREWLLAQTATECQRHGREATLEYPTRQGMWVRLSDAEKRWSAWIKPGDWLEHVSPALAGAAVSAGAEHLVVPWLAATERPFELPVPHLSCRRLCVENPVPGSALPEGKLLHIMSDRGGLWFEHLPELPAVGGGRPKMLRWPLRFVIGSSDTQRSLLGRIGIGDVLLIRTSRAEVYCYAKKLGHFNRVEGGIIVETLDIQHIEEENNTTETAETLPGLNQLPVKLEFVLYRKNVTLAELEAMGQQQLLSLPTNAELNVEIMANGVLLGNGELVQMNDTLGVEIHEWLSESGNGEEGHHHHHH | soluble
10 | MGSDKIHHHHHHMLDDHTQLEFPASGMTELPLIWQPQVIRCKAAGPGGRPLLVLLDTGTDPSAIDLTLARRLDLRLGDFALGSDATCDTVPFTETVLPWLRLGEVMLRNLYLMAVDLRQMPFPVDLVLGYNVLHRLNLTIDYAGQTVRLCHPDLAPPPPGAEGASVPLRFFEHFPALPAQIIAPSGATHDVILTIDTGSNGALTVSRDLAASLHLDLHTVQAATGHGFAAATPVSRGFTVDLQLGPFRLPAVEVDVPATSHGDLGRQGRANVGNRLLSRFRRLTLDYRREVCILDR | not soluble
11 | MRRRVGLGAIQQQKLAAEKYKDKGTDLQENQLEQMTKQMEVFRVKLEEFAMKHKEDIRKNSQFRKQFQEMCAAIGVDPLATGKGFWSVLGMGDFYYELGVQVVEVCLAANHKTGGLMELDDLRRRLIAARGQSSVHQEITKEDILMAAKKLSIFGNGFVVHKLGKGKYIVQSIPGELSMEETNILNAASNTEQGCVTQSQLIKDLGWTDYRAQQSLDKVLGEGLCWIDKQAGDEPAYWFPSLFPGRNAQTTAATAAAAAALEHHHHHH | not soluble
12 | MGSDKIHHHHHHMATEAQVLEALQATMSAAYTRGLSAAKPQWNMIATEVPSAGAANFYGWLKDLPGIVEWTGARQLANLGKHGYSIENKTFESSISISRDNVDDDQIGQYSVIAQNYGDQVAYFPDTLAYPLLKAGFTTLCYDGQNFFDTDHPLATTPATTFSNVIGDPATDTGEPWFLIDDTKVLKPIVFQNRRPFVFKNMNPNEEYTWFNNKYAAGVDGRCNVGFSFPQLAIGSKAALTEANYAAAKKLLLKMKKVDGTPIGTRATKLVVGPDNEAAAKKLISRMLIEGGDTNIYYNDVEIVVSPLVTA | not soluble
13 | MPIVYYDGNCIYCYNYVIWLIQHDLPRNYQFATLKGEVGQQFFKQHPEAANKNSVILQKGDRIYFESQAIIKLITALPNRTKLLGVGLWLVPKPVRNFGYRMFANNRNRMWKTTWHQPNDYEKSFFLDDNAKVKLTD | not soluble
14 | QVTVQSSPNFTQHVREQSLVTDQLSRRLIRTYQLYSRTSGKHVQVLANKRINAMAEDGDPFAKLIVETDTFGSRVRVRGAETGLYICMNKKGKLIAKSNGKGKDCVFTEIVLENNYTALQNAKYEGWYMAFTRKGRPRKGSKTRQHQREVHFMKRLPRGHHTTE | soluble
15 | GEERKCLQTHRVTVHGVPGPEPFTVFTINGGTKAKQLLQQILTNEQDIKPVTTDYFLMEEKYFISKEKNECRKQPFQRAIGPEEEIMQILSSWFPEEGYMGRIVLKTQQE | soluble
16 | SASFQRKGLQARILSTEEEEKLKRDQALVSAFKQQKLEKEAQKNWDLFYKRNSTNFFKDRHWTTREFEELRSCREYEGQKLTLLEAGCGVGNCLFPLLEEDLNLFAYACDFSPRAVDYVKQHPLYNAERCKVFQCDLTRDDLLDHVPPESVDAVTLIFVLSAVHPEKMRLVLLNVYKVLKPGRSVLFRDYGLNDHAMLRFKAGSKLGENFYVRQDGTRSYFFTDEFLAQLFVDAGYEEVVNEYVFRETVNKKEGLCVPRVFLQSKFRKPPKDPAPTSDSASL | soluble
17 | MAHHHHHHMNIFKYYNIYLPLSVLGFVHIEVKSNNDVLNNSLSSISFNNYIFGRILSTNESADVVVEKPMEEKLNNTNENIDETHEESDPSNSTEETVKKCISNILDMTCDSRGHALILANNILRSQNVNEEVIILNEHDLLSQFLNGDVSNIFSDNKSIFKDLLDKDICSTYEVNFDQNSKCTLLTNKNDLQISEDILLLGNESEETNKLLDLWKRVMKNEESKLYLLKRNLYQQHLKLRNRSRLSHDKLNNILNECNVLVKKYNNNYDKTINNIFKEWSTVTPHNIFEFKLFIKACRLTWRKSIKNLHAEYTELLKRSFN | not soluble
18 | MGSDKIHHHHHHMTNANGNLKKCPITISSYTLGTEVSFPKRVKVAAENGFDGIGLRAENYVDALAAGLTDEDMLRILDEHNMKVTEVEYITQWGTAEDRTAEQQKKEQTTFHMARLFGVKHINCGLLEKIPEEQIIVALGELCDRAEELIIGLEFMPYSGVADLQAAWRVAEACGRDNAQLICDTWHWARANQTAESIKNVPADRIVSIQLCDVHETPYKELREESLHDRLAPGEGYGDTVGFAKILKEHGVNPRVMGVEVISDSMVATGLEYAALKVYNATKKVLDEAWPEISPR | soluble
19 | MGHHHHHHSHMSGTEEAILGGRDSHPAAGGGSVLCFGQCQYTAEEYQAIQKALRQRLGPEYISSRMAGGGQKVCYIEGHRVINLANEMFGYNGWAHSITQQNVGEYALQQWGLLHCPAPAESLLWVRR | soluble
20 | MSLTLDELDSHLFKCADIIRDAVDPTDYKEYILPLVFYKAISDEYEQEREEIVEEYGEDFADNANLYDVPIVPEGHRWNDLRQESENVDEAINNAFTEFTQANPDLSGIFNANFMEAGGLTDDRLIKLVEHLSTYDLDRDSVPPDMLGEAYMDLVRHFAEEEGKSGGQFFTPPHIVQLCVRLVDDFADGMTFHDPTVGSGGMLTEAAKYYREAQGGDPSKLTFTGQEINPDIAAIARMNLSLHTLNGEIERGDSLASPGFTDGDDLERFDRVLANFPFSADWAKDDLQDDQYGRFDWHTKLPRADRGDYAFIMHIAEQLKEPDCGDESGGKAAIVIPHGVLFRKHEQRYRQPMLENDLVEAIVGLPENLFQNNSIPSAILVLNTDKPADREGEVQFIHAADEAFYEELSNQNELTDDGLDHIVENFDDWTTEERVSRTVGIEEIEENDFNLNIALYVDTTEPEEDIDVNEELAELRELQAEREEIESRMTEHMEALQYE | soluble

— the DeepSol protein solubility set
